Publication PMC7954794, “Protein context shapes the specificity of SH3 domain-mediated interactions in vivo” (Nature Communications, 2021)

System: PPIs identified as affected by the SH3 domain deletions
Test: Liquid DHFR-PCA low-throughput validation of PPIs affected by SH3 deletion (Fig. S1D-E)
Type: cell-based, Saccharomyces cerevisiae
Settings: label = prey, liquid DHFR-PCA, prey _1 = lost, _2 = gained in screen
In short: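 Growth at 30 °C was tracked by OD each 15 min over 72 h in agar-free PCA selection medium, starting at 0.1 OD. Cells were diploids selected after mating, first cultured 48 h with NAT and HPH in synthetic complete MSG medium, pH 6.0.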

B1: YDR379W_2 (protein, UniProt Q06407 1-1009, looked up)
Rho-type GTPase-activating …: MSADPINDQSSLCVRCNKSIASSQVYELESKKWHDQCFTCYKCDKKLNADSDFLVLDIGTLICYDCSDKCTNCGDKIDDTAIILPSSNEAYCSNCFRCCRCSNRIKNLKYAKTKRGLCCMDCHEKLLRKKQLLLENQTKNSSKEDFPIKLPERSVKRPLSPTRINGKSDVSTNNTAISKNLVSSNEDQQLTPQVLVSQERDESSLNDNNDNDNSKDREETSSHARTVSIDDILNSTLEHDSNSIEEQSLVDNEDYINKMGEDVTYRLLKPQRANRDSIVVKDPRIPNSNSNANRFFSIYDKEETDKDDTDNKENEIIVNTPRNSTDKITSPLNSPMAVQMNEEVEPPHGLALTLSEATKENNKSSQGIQTSTSKSMNHVSPITRTDTVEMKTSTSSSTLRLSDNGSFSRPQTADNLLPHKKVAPSPNKKLSRSFSLKSKNFVHNLKSKTSEMLDPKHPHHSTSIQESDTHSGWGVSSTHTNIRKSKAKKNPVSRGQSDSTIYNTLPQHGNFTVPEFNHKKAQSSLGSISKKQNSNDTATNRRINGSFTSSSSGHHIAMFRTPPLESGPLFKRPSLSSESAHHRSSSLQTSRSTNALLEDDSTKVDATDESATSLEKDFYFTELTLRKLKLDVRELEGTKKKLLQDVENLRLAKERLLNDVDNLTREKDKQSASSRESLEQKENIATSITVKSPSSNSDRKGSISNASPKPRFWKIFSSAKDHQVGDLESQQRSPNSSSGGTTNIAQKEISSPKLIRVHDELPSPGKVPLSPSPKRLDYTPDGSHLYGSSLQARCAYEKSTVPIIIRCCIDRIEKDDIGLNMEGLYRKSGSQTLVEEIENEFAQNNSLHSDTLSPKLNALLNQDIHAVASVLKRYLRKLPDPVLSFSIYDALIDLVRNNQLIERLPLNNDKFLDSPQKVTIYEMVLKSLLEIFKILPVEHQEVLKVLAAHIGKVRRCSERNLMNLHNLSLVFAPSLIHDFDGEKDIVDMKERNYIVEFILGNYRDIFKQA
Ratio (Deletedscore / WTscore) (bait BOI1): 0.9152

B2: YGR281W_2 (protein, UniProt P53049 1-1477, looked up)
Oligomycin resistance …: MTITVGDAVSETELENKSQNVVLSPKASASSDISTDVDKDTSSSWDDKSLLPTGEYIVDRNKPQTYLNSDDIEKVTESDIFPQKRLFSFLHSKKIPEVPQTDDERKIYPLFHTNIISNMFFWWVLPILRVGYKRTIQPNDLFKMDPRMSIETLYDDFEKNMIYYFEKTRKKYRKRHPEATEEEVMENAKLPKHTVLRALLFTFKKQYFMSIVFAILANCTSGFNPMITKRLIEFVEEKAIFHSMHVNKGIGYAIGACLMMFVNGLTFNHFFHTSQLTGVQAKSILTKAAMKKMFNASNYARHCFPNGKVTSFVTTDLARIEFALSFQPFLAGFPAILAICIVLLIVNLGPIALVGIGIFFGGFFISLFAFKLILGFRIAANIFTDARVTMMREVLNNIKMIKYYTWEDAYEKNIQDIRTKEISKVRKMQLSRNFLIAMAMSLPSIASLVTFLAMYKVNKGGRQPGNIFASLSLFQVLSLQMFFLPIAIGTGIDMIIGLGRLQSLLEAPEDDPNQMIEMKPSPGFDPKLALKMTHCSFEWEDYELNDAIEEAKGEAKDEGKKNKKKRKDTWGKPSASTNKAKRLDNMLKDRDGPEDLEKTSFRGFKDLNFDIKKGEFIMITGPIGTGKSSLLNAMAGSMRKTDGKVEVNGDLLMCGYPWIQNASVRDNIIFGSPFNKEKYDEVVRVCSLKADLDILPAGDMTEIGERGITLSGGQKARINLARSVYKKKDIYLFDDVLSAVDSRVGKHIMDECLTGMLANKTRILATHQLSLIERASRVIVLGTDGQVDIGTVDELKARNQTLINLLQFSSQNSEKEDEEQEAVVAGELGQLKYESEVKELTELKKKATEMSQTANSGKIVADGHTSSKEERAVNSISLKIYREYIKAAVGKWGFIALPLYAILVVGTTFCSLFSSVWLSYWTENKFKNRPPSFYMGLYSFFVFAAFIFMNGQFTILCAMGIMASKWLNLRAVKRILHTPMSYIDTTPLGRILNRFTKDTDSLDNELTESLRLMTSQFANIVGVCVMCIVYLPWFAIAIPFLLVIFVLIADHYQSSGREIKRLEAVQRSFVYNNLNEVLGGMDTIKAYRSQERFLAKSDFLINKMNEAGYLVVVLQRWVGIFLDMVAIAFALIITLLCVTRAFPISAASVGVLLTYVLQLPGLLNTILRAMTQTENDMNSAERLVTYATELPLEASYRKPEMTPPESWPSMGEIIFENVDFAYRPGLPIVLKNLNLNIKSGEKIGICGRTGAGKSTIMSALYRLNELTAGKILIDNVDISQLGLFDLRRKLAIIPQDPVLFRGTIRKNLDPFNERTDDELWDALVRGGAIAKDDLPEVKLQKPDENGTHGKMHKFHLDQAVEEEGSNFSLGERQLLALTRALVRQSKILILDEATSSVDYETDGKIQTRIVEEFGDCTILCIAHRLKTIVNYDRILVLEKGEVAEFDTPWTLFSQEDSIFRSMCSRSGIVENDFENRS
Ratio (Deletedscore / WTscore) (bait BOI1): 0.9762
Ratio (Deletedscore / WTscore) (bait BZZ1-2): 1.357
Ratio (Deletedscore / WTscore) (bait LSB3): 1.455

B3: YKR082W_1 (protein, UniProt P36161 2-1157, looked up)
Nucleoporin NUP133: SEKKVHLRLRKELSVPIAVVENESLAQLSYEEESQASLMDISMEQQQLRLHSHFDNSKVFTENNRYIVKTLQTDYSSGFSNDDELNGYIDMQIGYGLVNDHKKVYIWNIHSTQKDTPYITVPFRSDDNDEIAVAPRCILTFPATMDESPLALNPNDQDETGGLIIIKGSKAIYYEDINSINNLNFKLSEKFSHELELPINSSGGEKCDLMLNCEPAGIVLSTNMGRIFFITIRNSMGKPQLKLGKLLNKPFKLGIWSKIFNTNSSVVSLRNGPILGKGTRLVYITTNKGIFQTWQLSATNSHPTKLIDVNIYEAILESLQDLYPFAHGTLKIWDSHPLQDESSQLFLSSIYDSSCNETYYILSTIIFDSSSNSFTIFSTYRLNTFMESITDTKFKPKIFIPQMENANDTNEVTSILVMFPNAVVITQVNSKLDSSYSMRRKWEDIVSLRNDIDIIGSGYDSKSLYVLTKQMGVLQFFVKENEETNSKPEVGFVKSHVDQAVYFSKINANPIDFNLPPEISLDQESIEHDLKLTSEEIFHSNGKYIPPMLNTLGQHLSVRKEFFQNFLTFVAKNFNYKISPELKLDLIEKFEILNCCIKFNSIIRQSDVLNDIWEKTLSNYNLTQNEHLTTKTVVINSPDVFPVIFKQFLNHVVFVLFPSQNQNFKLNVTNLINLCFYDGILEEGEKTIRYELLELDPMEVDTSKLPWFINFDYLNCINQCFFDFTFACEEEGSLDSYKEGLLKIVKILYYQFNQFKIWINTQPVKSVNANDNFININNLYDDNHLDWNHVLCKVNLKEQCIQIAEFYKDLSGLVQTLQTLDQNDSTTVSLYETFFNEFPKEFSFTLFEYLIKHKKLNDLIFRFPQQHDVLIQFFQESAPKYGHVAWIQQILDGSYADAMNTLKNITVDDSKKGESLSECELHLNVAKLSSLLVEKDNLDINTLRKIQYNLDTIDAEKNISNKLKKGEVQICKRFKNGSIREVFNILVEELKSTTVVNLSDLVELYSMLDDEESLFIPLRLLSVDGNLLNFEVKKFLNALVWRRIVLLNASNEGDKLLQHIVKRVFDEELPKNNDFPLPSVDLLCDKSLLTPEYISETYGRFPIDQNAIREEIYEEISQVETLNSDNSLEIKLHSTIGSVAKEKNYTINYETNTVEY
Ratio (Deletedscore / WTscore) (bait RVS167): 0.6329
